Results on four substances are retold here after patent publication US20040213780A1.

What all share (experiment): cell-based or functional assay
In experiment [1] the target is purified Sp1 (Promega Corp.) (UniProt P08047).
The target of experiment [2] is Sp1 in human brain tissue (endogenous) (human) (UniProt P08047).
Experiment [3] has as its target Sp1 in nuclear extracts of primary rat striatal neurons (endogenous) (rat) (UniProt Q01714).

Chain of purified Sp1 (Promega Corp.) (P08047 8-785 limits assumed): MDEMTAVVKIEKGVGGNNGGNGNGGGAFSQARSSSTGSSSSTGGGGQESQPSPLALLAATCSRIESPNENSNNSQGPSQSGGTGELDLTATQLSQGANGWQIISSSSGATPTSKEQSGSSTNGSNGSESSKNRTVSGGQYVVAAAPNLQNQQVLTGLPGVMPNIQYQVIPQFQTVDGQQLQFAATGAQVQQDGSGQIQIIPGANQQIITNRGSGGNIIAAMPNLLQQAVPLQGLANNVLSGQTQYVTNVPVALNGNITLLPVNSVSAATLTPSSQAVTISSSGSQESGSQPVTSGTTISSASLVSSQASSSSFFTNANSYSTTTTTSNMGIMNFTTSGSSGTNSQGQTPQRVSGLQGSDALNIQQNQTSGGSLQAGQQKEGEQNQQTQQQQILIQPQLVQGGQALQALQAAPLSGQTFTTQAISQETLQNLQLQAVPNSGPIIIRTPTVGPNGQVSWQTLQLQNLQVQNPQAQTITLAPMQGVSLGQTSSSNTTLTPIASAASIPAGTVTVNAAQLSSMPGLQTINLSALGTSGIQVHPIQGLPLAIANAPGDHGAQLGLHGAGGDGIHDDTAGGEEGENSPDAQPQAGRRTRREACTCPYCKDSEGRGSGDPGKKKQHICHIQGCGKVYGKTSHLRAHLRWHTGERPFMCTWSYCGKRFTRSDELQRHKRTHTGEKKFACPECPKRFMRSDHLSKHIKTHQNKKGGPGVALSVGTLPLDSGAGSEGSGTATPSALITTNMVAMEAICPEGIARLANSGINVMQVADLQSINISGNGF
Chain of Sp1 in human brain tissue (endogenous) (human) (P08047 2-785 limits assumed): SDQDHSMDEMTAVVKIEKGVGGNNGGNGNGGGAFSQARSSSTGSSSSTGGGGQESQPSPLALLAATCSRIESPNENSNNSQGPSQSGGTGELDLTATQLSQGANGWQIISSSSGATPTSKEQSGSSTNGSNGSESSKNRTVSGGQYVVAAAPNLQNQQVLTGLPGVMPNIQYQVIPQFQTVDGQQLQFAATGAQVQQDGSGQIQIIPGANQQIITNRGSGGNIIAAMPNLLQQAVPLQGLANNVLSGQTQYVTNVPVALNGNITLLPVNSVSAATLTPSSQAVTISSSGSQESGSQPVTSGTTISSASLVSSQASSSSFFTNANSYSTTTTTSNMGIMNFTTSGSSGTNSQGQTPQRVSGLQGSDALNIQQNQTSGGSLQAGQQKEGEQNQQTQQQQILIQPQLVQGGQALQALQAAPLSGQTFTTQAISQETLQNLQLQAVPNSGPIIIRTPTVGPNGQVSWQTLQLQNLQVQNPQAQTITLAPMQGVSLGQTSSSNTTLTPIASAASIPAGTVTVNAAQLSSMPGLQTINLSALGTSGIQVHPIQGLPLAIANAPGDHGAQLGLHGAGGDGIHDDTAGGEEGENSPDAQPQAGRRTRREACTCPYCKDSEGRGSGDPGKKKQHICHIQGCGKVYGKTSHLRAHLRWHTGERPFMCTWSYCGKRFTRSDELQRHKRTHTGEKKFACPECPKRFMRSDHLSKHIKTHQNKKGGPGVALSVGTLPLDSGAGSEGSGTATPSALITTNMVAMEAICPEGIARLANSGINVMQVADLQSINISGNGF
Chain of Sp1 in nuclear extracts of primary rat striatal neurons (endogenous) (rat) (Q01714 2-786 limits assumed): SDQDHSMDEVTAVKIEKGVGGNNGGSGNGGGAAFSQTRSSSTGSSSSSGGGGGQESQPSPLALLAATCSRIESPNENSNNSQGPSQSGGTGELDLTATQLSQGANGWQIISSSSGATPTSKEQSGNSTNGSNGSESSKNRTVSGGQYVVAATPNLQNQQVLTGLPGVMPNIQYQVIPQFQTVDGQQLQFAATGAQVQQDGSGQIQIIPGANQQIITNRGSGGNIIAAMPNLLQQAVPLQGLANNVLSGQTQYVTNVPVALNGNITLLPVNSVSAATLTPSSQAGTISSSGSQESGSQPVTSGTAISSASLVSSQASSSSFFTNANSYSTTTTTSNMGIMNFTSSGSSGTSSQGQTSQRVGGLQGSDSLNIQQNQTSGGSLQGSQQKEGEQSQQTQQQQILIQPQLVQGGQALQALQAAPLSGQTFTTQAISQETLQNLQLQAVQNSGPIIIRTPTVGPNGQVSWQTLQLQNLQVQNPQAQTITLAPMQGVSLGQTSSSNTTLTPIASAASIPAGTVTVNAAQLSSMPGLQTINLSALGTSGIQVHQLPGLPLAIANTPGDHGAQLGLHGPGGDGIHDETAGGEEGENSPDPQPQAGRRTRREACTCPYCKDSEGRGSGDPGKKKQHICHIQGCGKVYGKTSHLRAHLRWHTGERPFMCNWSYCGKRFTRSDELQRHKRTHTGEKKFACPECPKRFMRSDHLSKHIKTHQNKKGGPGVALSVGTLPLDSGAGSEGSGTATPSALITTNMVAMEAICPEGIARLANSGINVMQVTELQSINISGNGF

Consider “glutathione S-transferase (GST)-huntingtin fusion protein with 20 glutamines (from UniProt P42858 1-88)”, for which the reduction in Sp1 binding to a labeled consensus Sp1 site (EMSA with purified proteins) in experiment [1] turned out to be 20%.

On to “glutathione S-transferase (GST)-huntingtin fusion protein with 51 glutamines (from UniProt P42858 1-88)”, for which, in experiment [1], the inhibition of Sp1 binding to a labeled consensus Sp1 site (EMSA with purified proteins) is 70%. Take “huntingtin in human HD brain tissue (endogenous) (from UniProt P42858 1-3142)”: in experiment [2], the decrease of Sp1 binding to its D2 binding site (EMSA, nuclear extracts of caudate, grade 1 HD brain against control brain) was determined as 39% and the decrease of Sp1 binding to its D2 binding site (EMSA, nuclear extracts of caudate, grade 4 HD brain against control brain) amounted to 48%. Substance “mutant full-length huntingtin with 75 glutamines (HttQ75), P42858 1-3142” showed an inhibition of Sp1 binding to a labeled D2 promoter fragment (EMSA, nuclear extracts of transfected striatal cells) in experiment [3] of 55%.
